In paper PMC11996676 one finds Kd data, which are given here for one molecule.

The target of this assay is aPKCι kinase domain (residues 248–596), fully primed (human), P41743. The assay is described as follows: fluorescence polarisation; fluorescence anisotropy; Llgl1 P-site peptide and aPKCι kinase domain (2P, pT412 and pT564); apparent Kd.
Sequence of aPKCι kinase domain (residues 248–596), fully primed (human), P41743 (P41743 248-596): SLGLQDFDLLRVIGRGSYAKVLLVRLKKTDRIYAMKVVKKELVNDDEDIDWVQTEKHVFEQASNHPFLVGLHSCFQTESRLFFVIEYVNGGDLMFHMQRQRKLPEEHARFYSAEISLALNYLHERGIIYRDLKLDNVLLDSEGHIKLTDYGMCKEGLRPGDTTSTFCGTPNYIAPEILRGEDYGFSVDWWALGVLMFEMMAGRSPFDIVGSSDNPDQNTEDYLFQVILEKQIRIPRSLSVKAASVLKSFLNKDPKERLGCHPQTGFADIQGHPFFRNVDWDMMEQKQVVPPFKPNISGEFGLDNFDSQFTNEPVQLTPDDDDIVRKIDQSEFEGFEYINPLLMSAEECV

B1: Llgl1 P-site peptide (peptide)
chain: LAMEGPLSRVKSLKKSLRQSFRRIRKSRV
modifications: not checked
Regarding B1, the Kd was 48 nM.
